Reference: publication PMC5383425, “Differential CLE peptide perception by plant receptors implicated from structural and functional analyses of TDIF-TDR interactions” (PLoS ONE, 2017)
Changes are numbered by the printed parent chain. Square brackets hold non-standard residues; d marks the D form. Ends that are not written are not given here. Hyp = O=C(O)[C@@H]1C[C@@H](O)CN1

How the values were obtained:
Assay in all cases: ITC; 0.5–1 mM peptide titrated into 10–40 μM ecdTDR; 25°C; 10 mM sodium citrate, 100 mM NaCl, pH 5.5; fitted to one set of binding sites; MicroCal Auto-iTC200
Conditions in all cases: both partners purified
ecdTDR E231A mutant = target: T1, ecdTDR E231A mutant (Arabidopsis thaliana, UniProt Q9FII5 30-642, E231A)
T1 construct: TDR/PXY of A. thaliana, extracellular domain, residues 30-642; source: High Five insect cells (baculovirus), secreted, purified as the wild type (Ni-NTA, size-exclusion chromatography)
T1 sequence (looked up): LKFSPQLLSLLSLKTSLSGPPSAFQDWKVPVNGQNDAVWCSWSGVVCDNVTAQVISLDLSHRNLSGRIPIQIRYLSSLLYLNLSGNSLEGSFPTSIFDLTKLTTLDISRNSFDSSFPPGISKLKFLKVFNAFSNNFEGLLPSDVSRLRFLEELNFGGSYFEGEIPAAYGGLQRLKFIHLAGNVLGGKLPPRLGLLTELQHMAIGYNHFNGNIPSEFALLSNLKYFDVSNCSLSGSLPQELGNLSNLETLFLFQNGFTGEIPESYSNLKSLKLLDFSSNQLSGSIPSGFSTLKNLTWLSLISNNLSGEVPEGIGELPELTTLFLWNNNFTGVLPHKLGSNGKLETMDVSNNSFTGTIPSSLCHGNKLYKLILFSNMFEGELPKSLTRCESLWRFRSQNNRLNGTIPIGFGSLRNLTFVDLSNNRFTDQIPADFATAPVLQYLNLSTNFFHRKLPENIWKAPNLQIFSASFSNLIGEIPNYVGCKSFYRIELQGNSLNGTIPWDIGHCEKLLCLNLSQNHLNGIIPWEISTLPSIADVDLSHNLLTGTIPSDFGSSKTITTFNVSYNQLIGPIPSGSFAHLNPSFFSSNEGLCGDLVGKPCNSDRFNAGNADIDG

ecdTDR R138A mutant = target: T2, ecdTDR R138A mutant (Arabidopsis thaliana, UniProt Q9FII5 30-642, R138A)
T2 construct: TDR/PXY of A. thaliana, extracellular domain, residues 30-642; source: High Five insect cells (baculovirus), secreted, purified as the wild type (Ni-NTA, size-exclusion chromatography)
T2 sequence (looked up): T1 sequence (looked up) with R109A, A202E

ecdTDR R423A mutant = target: T3, ecdTDR R423A mutant (Arabidopsis thaliana, UniProt Q9FII5 30-642, R423A)
T3 construct: TDR/PXY of A. thaliana, extracellular domain, residues 30-642; source: High Five insect cells (baculovirus), secreted, purified as the wild type (Ni-NTA, size-exclusion chromatography)
T3 sequence (looked up): T1 sequence (looked up) with A202E, R394A

Measured: binding result

B1: Tracheary Element Differentiation Inhibitory Factor (TDIF) peptide (peptide)
peptide: HEV[Hyp]SG[Hyp]NPISN
notes: TDIF, the 12-residue CLE peptide processed from CLE41 and CLE44 of A. thaliana; printed as HEV(Hyp)SG(Hyp)NPISN; numbers count on: the 12-residue peptide; CLE44 encodes the same peptide; also called wild type TDIF; wtTDIF; source: synthetic peptide (peptide 2.0)
binds: all assays above
